Here are results for one substance from EP3464323B1.

As usually defined, the Kd is a measure of binding affinity in units of concentration. Low values mean tighter binding, high ones weaker binding.

The experiment concerns the target CY5 fluorescently labeled CAS9 protein (S. pyogenes) (UniProt Q99ZW2). Kind of experiment: fluorescence titration; 5 nM CY5-CAS9 titrated with peptide, quadratic fit.

Bounds are passed on as bounds.

The substance CADY (peptide) gave a Kd greater than 100 nM.
